Data set [1] addresses T1, ZIKV NS1 (Zika virus, UniProt A0A024B7W1 795-1146). Nature of the data set: ELONA; protein on Cu2+-coated plate; Hill slope fit; ELONA: borate buffer (60 mM in selection), 37 °C, 30 min, pH not stated; specificity: selection buffer, filtration, qPCR; FET: human serum as gate electrolyte. To be noted: chain copies: 2; label: digoxigenin.
Data set [2] addresses YFV NS1 (Yellow fever virus, UniProt P03314 779-1130).
In data set [3] the target is DENV1 NS1 (Dengue virus serotype 1, UniProt P17763 776-1127). Nature of the data set: filter binding with qPCR; 100 nM aptamer, 40 pmol protein; ELONA: borate buffer (60 mM in selection), 37 °C, 30 min, pH not stated; specificity: selection buffer, filtration, qPCR; FET: human serum as gate electrolyte. To be noted: chain copies: 2. On the technique in general: Real-time PCR tracks product formation cycle by cycle.

In data set [4] the target is DENV3 NS1 (Dengue virus serotype 3, UniProt Q6YMS4 774-1125). The description is as above.
The target of data set [5] is T1, ZIKV NS1. Nature of the data set: graphene FET; human serum; Hill n = 0.8 ± 0.2; sequential NS1 addition; ELONA: borate buffer (60 mM in selection), 37 °C, 30 min, pH not stated; specificity: selection buffer, filtration, qPCR; FET: human serum as gate electrolyte. Conditions: chain copies: 2.

B1: ZIKV60 (digoxigenin-labeled) (ssDNA)
DNA: CTTCTGCCCGCCTCCTTCCGGGCCCCGGGGGGTGTCCAGGCCCATGCGTCGTCCGCGGGGAGACGAGATAGGCGGACACT
On to B1, for which the Kd in data set [1] worked out at 2.28 ± 0.28 nM.

B2: ZIKV60 (ssDNA)
DNA: CTTCTGCCCGCCTCCTTCCGGGCCCCGGGGGGTGTCCAGGCCCATGCGTCGTCCGCGGGGAGACGAGATAGGCGGACACT
On to B2, for which the binding signal in data set [2] was 14.2 ratio ZIKV NS1/YFV NS1 bound; in data set [3], 14.2 ratio ZIKV NS1/DENV1 NS1 bound; in data set [4], 13.4 ratio ZIKV NS1/DENV3 NS1 bound.

B3: ZIKV60 (pyrene-modified) (ssDNA)
DNA: CTTCTGCCCGCCTCCTTCCGGGCCCCGGGGGGTGTCCAGGCCCATGCGTCGTCCGCGGGGAGACGAGATAGGCGGACACT
modifications: pyrene
In the case of B3, the “apparent K (half saturation)” value in data set [5] was 1.4 ± 0.3 pg/mL.

Usually Kd stands for the equilibrium constant for the complex coming apart. A higher Kd goes with lower affinity.

Source of the values: PMC9443353.
